From paper PMC4456160 (Nature structural & molecular biology, 2015)
Substitutions are numbered along the chain they refer to. In names and notes the source's numbering stands. Read-outs that look alike come from different tables or passages of the source. One block for each molecule: values may come before it.

T1: full length ectodomain of human RGMC (eRGMC) (human, UniProt Q6ZVN8 36-400)
T1 sequence: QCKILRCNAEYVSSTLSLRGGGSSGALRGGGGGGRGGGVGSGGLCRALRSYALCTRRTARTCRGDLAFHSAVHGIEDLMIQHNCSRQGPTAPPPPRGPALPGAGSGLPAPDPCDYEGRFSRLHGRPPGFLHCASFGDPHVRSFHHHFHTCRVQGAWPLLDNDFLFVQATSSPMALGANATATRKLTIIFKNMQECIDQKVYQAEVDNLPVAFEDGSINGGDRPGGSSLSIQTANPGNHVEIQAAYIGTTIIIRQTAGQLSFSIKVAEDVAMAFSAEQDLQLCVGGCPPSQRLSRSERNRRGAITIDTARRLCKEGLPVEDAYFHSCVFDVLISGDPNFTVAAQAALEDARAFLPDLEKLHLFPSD

B1: secreted ectodomain of human BMPR1A (eBMPR1A) (receptor)
chain: TLAPEDTLPFLKCYCSGHCPDDAINNTCITNGHCFAIIEEDDQGETTLASGCMKYEGSDFQCKDSPKAQLRRTIECCRTNLCNQYLQPTLPPV
B2: N-terminal domain of human RGMC (RGMCND) (domain or fragment)
chain: QCKILRCNAEYVSSTLSLRGGGSSGALRGGGGGGRGGGVGSGGLCRALRSYALCTRRTARTCRGDLAFHSAVHGIEDLMIQHNCSRQGPTAPPPPRGPALPGAGSGLPAPDP
B3: RGMCND-L101P (domain or fragment)
chain: B2 chain with L66P
B4: RGMCND-G99R (domain or fragment)
chain: B2 chain with G64R
B5: mouse NEO1 FN5-FN6 with juxtamembrane stretch (NEO1FN56M) (domain or fragment)
chain: TPMMPPVGVQASILSHDTIRITWADNSLPKHQKITDSRYYTVRWKTNIPANTKYKNANATTLSYLVTGLKPNTLYEFSVMVTKGRRSSTWSMTAHGATFELVPTSPPKDVTVVSKEGKPRTIIVNWQPPSEANGKITGYIIYYSTDVNAEIHDWVIEPVVGNRLTHQIQELTLDTPYYFKIQARNSKGMGPMSEAVQFRTPKADSSDKMPNDQALGSAGKGSRLPDLGSDYKPPMSGSNSPHGSPTSPLDSN
B6: human BMP2 (Bone Morphogenetic Protein 2), disulfide-linked dimer (ligand)
chain: QAKHKQRKRLKSSCKRHPLYVDFSDVGWNDWIVAPPGYHAFYCHGECPFPLADHLNSTNHAIVQTLVNSVNSKIPKACCVPTELSAISMLYLDENEKVVLKNYQDMVVEGCGCR
B7: mouse NEO1 fifth and sixth fibronectin type III domains (NEO1FN56) (domain or fragment)
chain: TPMMPPVGVQASILSHDTIRITWADNSLPKHQKITDSRYYTVRWKTNIPANTKYKNANATTLSYLVTGLKPNTLYEFSVMVTKGRRSSTWSMTAHGATFELVPTSPPKDVTVVSKEGKPRTIIVNWQPPSEANGKITGYIIYYSTDVNAEIHDWVIEPVVGNRLTHQIQELTLDTPYYFKIQARNSKGMGPMSEAVQFRTP
B8: N-terminal domain of human RGMA (RGMAND) (domain or fragment)
chain: TSPCKILKCNSEFWSATSGSHAPASDDTPEFCAALRSYALCTRRTARTCRGDLAYHSAVHGIEDLMSQHNCSKDGPTSQPRLRTLPPAGDSQERS
B9: N-terminal domain of human RGMB (RGMBND) (domain or fragment)
chain: QCRIQKCTTDFVSLTSHLNSAVDGFDSEFCKALRAYAGCTQRTSKACRGNLVYHSAVLGISDLMSQRNCSKDGPTSSTNPEVTH
B10: full length ectodomain of human RGMB (eRGMB) (domain or fragment)
chain: QCRIQKCTTDFVSLTSHLNSAVDGFDSEFCKALRAYAGCTQRTSKACRGNLVYHSAVLGISDLMSQRNCSKDGPTSSTNPEVTHDPCNYHSHAGAREHRRGDQNPPSYLFCGLFGDPHLRTFKDNFQTCKVEGAWPLIDNNYLSVQVTNVPVVPGSSATATNKITIIFKAHHECTDQKVYQAVTDDLPAAFVDGTTSGGDSDAKSLRIVERESGHYVEMHARYIGTTVFVRQVGRYLTLAIRMPEDLAMSYEESQDLQLCVNGCPLSERIDDGQGQVSAILGHSLPRTSLVQAWPGYTLETANTQCHEKMPVKDIYFQSCVFDLLTTGDANFTAAAHSALEDVEALHPRKERWHIFPSSG

Legend:
[1] = molecular target: human BMP2 (Bone Morphogenetic Protein 2), disulfide-linked dimer (human) (UniProt P12643); assay: SPR
[2] = molecular target: B6; assay: SPR
[3] = molecular target: B6; assay: SEC-MALS
[4] = molecular target: B6; assay: crystal structure
[5] = molecular target: B6; assay: SPR; remark: listed apart in the source
[6] = molecular target: B10; assay: SAXS
crystal structure = molecular target: the molecule itself; assay: crystal structure
[7] = molecular target: B10; assay: SPR
[8] = molecular target: T1, full length ectodomain of human RGMC …; assay: SPR
[9] = molecular target: B10; assay: crystal structure
[10] = molecular target: B6; assay: SAXS
[11] = molecular target: B6; assay: crystal structure; remark: listed apart in the source

Kd [1]: 280 nM
Molecule: RGMC H104A mutant (from UniProt Q6ZVN8 36-147) (domain or fragment)

Molecule: B1
Kd [2]: 280 nM | stoichiometry N [3]: 2 eBMPR1A per disulfide-linked BMP2 dimer (printed 2:2)

Molecule: B2
stoichiometry N [4]: 2 RGMC per BMP2 dimer | Kd [5]: 124 nM

Molecule: B3
Kd [5]: 1500 nM

Molecule: B4
Kd [5]: 910 nM

Molecule: B5
stoichiometry N [6]: 1 NEO1 per eRGMB (printed 2:2:2)

Molecule: B6
stoichiometry N (crystal structure): 2 | binding result [7]: binds | binding result [8]: binds

Molecule: B7
binding result [9]: binds

Molecule: B8
binding result [4]: binds

Molecule: B9
stoichiometry N [3]: 2 RGMBND per disulfide-linked BMP2 dimer (printed 2:2) | Kd [5]: 88 nM

Molecule: B10
stoichiometry N [10]: 2 eRGMB per BMP2 dimer (printed 2:2:2) | stoichiometry N [11]: 2 RGMB per BMP2 dimer
